# Laboratory results as given in patent EP2402371A1 (SANOFI, dated 2012).
# T1: human GPVI on the platelet surface (human, UniProt Q9HCN6 21-339)
# T1 sequence (looked up): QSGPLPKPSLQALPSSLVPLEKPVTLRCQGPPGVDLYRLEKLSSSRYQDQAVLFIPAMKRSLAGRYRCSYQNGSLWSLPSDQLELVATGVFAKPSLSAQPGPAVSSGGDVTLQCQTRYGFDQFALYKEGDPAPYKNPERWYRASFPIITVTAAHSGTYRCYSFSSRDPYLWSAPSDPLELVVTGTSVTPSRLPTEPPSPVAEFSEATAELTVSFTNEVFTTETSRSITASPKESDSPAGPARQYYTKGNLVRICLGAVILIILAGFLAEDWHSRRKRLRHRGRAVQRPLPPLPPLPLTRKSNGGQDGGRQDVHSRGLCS
# Tests used:
# [1] = target: T1, human GPVI on the platelet surface; test: cell-based or functional assay
# hGPVI-hFc fusion protein [2] = target: T2, hGPVI-hFc fusion protein (human); test: competition assay, GPVI-Fc pre-incubated with Fab, binding to collagen-coated plates (DELFIA), Test 1
# T2 construct: also called GPVI-Fc fusion protein; human GPVI-Fc
# hGPVI-hFc fusion protein [3] = target: T2, hGPVI-hFc fusion protein; test: competition assay, GPVI-Fc pre-incubated with Fab, binding to collagen-coated plates (DELFIA), Test 2
# hGPVI-hFc fusion protein [4] = target: T2, hGPVI-hFc fusion protein; test: competition assay, GPVI-Fc pre-incubated with Fab, binding to collagen-coated plates (DELFIA), Test 3
Binder,"IC50 for inhibition of collagen induced platelet aggregation (human platelet rich plasma), Test 1 [1]","IC50 for inhibition of collagen induced platelet aggregation (human platelet rich plasma), Test 2 [1]","IC50 for inhibition of collagen induced platelet aggregation (human platelet rich plasma), Test 3 [1]",IC50 (hGPVI-hFc fusion protein [2]),IC50 (hGPVI-hFc fusion protein [3]),IC50 (hGPVI-hFc fusion protein [4])
"non-humanized Fab construct based on the original clone 390 without the His-tag (Fab, V domains shown) VH: QVQLKESGPGLVAPSQSLSITCTVSGFSLTGYGVNWVRQPPGKGLEWLGMIWGDGSTDYNSTLKSRLSISKDNSKSQVFLKMNSLQTDDTARYYCARDLPMDYWGQGTSVTVSS VL: DIQMTQSPSSLSASLGGKVTITCKASQDINKYIAWYQHKPGKGPSLLIHYTSTLQPGIPSRFSGSGSGRDYSFSISNLEPEDIATYYCLQYANLLTFGGGTKLEIKR",1.6 µg/mL,6.4 µg/mL,1.3 µg/mL,0.49 µg/mL,0.56 µg/mL,0.99 µg/mL
"humanized anti-GPVI Fab VL1/VH2 (Fab, V domains shown) VH: QVQLQESGPGLVAPSQSLSITCTVSGFSLTGYGVNWVRQPPSRGLEWLGMIWGDGSTDYQSTLKSRLSISKDNSKSQVFLKMNSLTTDDTARYYCARDLPMDYWGQGTSVTVSS VL: DIQMTQSPSSLSASVGGRVTITCKASQDINKYIAWYQHKPGKGPSLLIHYTSTLQPGVPSRFSGSGSGRDYSFSISNLQPEDIATYYCLQYANLLTFGGGTKLEIKR",2.3 µg/mL,2 µg/mL,1.1 µg/mL,,,
"humanized anti-GPVI Fab VL2/VH2 (Fab, V domains shown) VH: QVQLQESGPGLVAPSQSLSITCTVSGFSLTGYGVNWVRQPPSRGLEWLGMIWGDGSTDYQSTLKSRLSISKDNSKSQVFLKMNSLTTDDTARYYCARDLPMDYWGQGTSVTVSS VL: DIQMTQSPSSLSASVGGRVTITCKASQDINKYIAWYQHKPGKGPSLLIHYTSTLQPGVPSRFSGSGSGRDYSFSISNLQPEDIATYYCLQYAHLLTFGGGTKLEIKR",1.4 µg/mL,2.4 µg/mL,2.3 µg/mL,,,
"humanized anti-GPVI Fab VL1/VH4 (Fab, V domains shown) VH: QVQLQESGPGLVAPSQSLSITCTVSGFSLTYYGVNWVRQPPSRGLEWLGMIWGDGSTDYQSTLKSRLSISKDNSKSQVFLKMNSLTTDDTARYYCARDLPMDYWGQGTSVTVSS VL: DIQMTQSPSSLSASVGGRVTITCKASQDINKYIAWYQHKPGKGPSLLIHYTSTLQPGVPSRFSGSGSGRDYSFSISNLQPEDIATYYCLQYANLLTFGGGTKLEIKR",1.6 µg/mL,1.8 µg/mL,1.2 µg/mL,,,
"humanized anti-GPVI Fab VL1/VH1 (Fab, V domains shown) VH: QVQLQESGPGLVAPSQSLSITCTVSGFSLTGYGVNWVRQPPSRGLEWLGMIWGDGSTDYQSTLKSRLSISKDTSKSQVFLKMNSLTTDDTARYYCARDLPMDYWGQGTSVTVSS VL: DIQMTQSPSSLSASVGGRVTITCKASQDINKYIAWYQHKPGKGPSLLIHYTSTLQPGVPSRFSGSGSGRDYSFSISNLQPEDIATYYCLQYANLLTFGGGTKLEIKR",1.5 µg/mL,2.3 µg/mL,,,,
"humanized anti-GPVI Fab VL1/VH3 (Fab, V domains shown) VH: EVQLLESGPGLVAPSGSLSITCTVSGFSLTGYGVNWVRQPPGKGLEWLGMIWGDGSTDYQSTLKSRLSISKDNSKSQVFLKMNSLRTDDTARYYCARDLPMDYWGLGTSVTVSS VL: DIQMTQSPSSLSASVGGRVTITCKASQDINKYIAWYQHKPGKGPSLLIHYTSTLQPGVPSRFSGSGSGRDYSFSISNLQPEDIATYYCLQYANLLTFGGGTKLEIKR",1.7 µg/mL,1.5 µg/mL,1.5 µg/mL,,,
"humanized anti-GPVI Fab VL1/VH5 (Fab, V domains shown) VH: QVQLQESGPGLVAPSQSLSITCTVSGFSLTGYGVNWVRQPPSRGLEWLGMIWGDGSTDYQSTLKSRLSISKDNSKSQVFLKMNSLTTDDTARYYCARDLPMDEWGQGTSVTVSS VL: DIQMTQSPSSLSASVGGRVTITCKASQDINKYIAWYQHKPGKGPSLLIHYTSTLQPGVPSRFSGSGSGRDYSFSISNLQPEDIATYYCLQYANLLTFGGGTKLEIKR",1.9 µg/mL,2.3 µg/mL,1.2 µg/mL,,,
"humanized anti-GPVI Fab VL3/VH2 (Fab, V domains shown) VH: QVQLQESGPGLVAPSQSLSITCTVSGFSLTGYGVNWVRQPPSRGLEWLGMIWGDGSTDYQSTLKSRLSISKDNSKSQVFLKMNSLTTDDTARYYCARDLPMDYWGQGTSVTVSS VL: DIQMTQSPSSLSASVGGRVTITCKASQDINKYIAWYQHKPGKGPSLLIHYTSTLQPGVPSRFSGSGSGRDYSFSISNLQPEDIATYYCLQYALLLTFGGGTKLEIKR",1.9 µg/mL,0.9 µg/mL,2.1 µg/mL,,,
"humanized anti-GPVI Fab VL3/VH4 (Fab, V domains shown) VH: QVQLQESGPGLVAPSQSLSITCTVSGFSLTYYGVNWVRQPPSRGLEWLGMIWGDGSTDYQSTLKSRLSISKDNSKSQVFLKMNSLTTDDTARYYCARDLPMDYWGQGTSVTVSS VL: DIQMTQSPSSLSASVGGRVTITCKASQDINKYIAWYQHKPGKGPSLLIHYTSTLQPGVPSRFSGSGSGRDYSFSISNLQPEDIATYYCLQYALLLTFGGGTKLEIKR",1 µg/mL,2.3 µg/mL,2 µg/mL,,,
